Laboratory results reported in patent US10391180B2, “Self-assembling complex for targeting chemical agents to cells” (CEDARS-SINAI MEDICAL CENTER, priority 2007, dated 2019).

Tests used:
[1] = HerDox stability in serum-containing media at 37° C (Ni beads); assay type: in vitro ADME; details: 10% fetal bovine serum media
Description: FIGS. 6 (A)-(B) illustrates conjugate stability under different storage conditions, or in serum. As illustrated in FIG. 6 (A), HerDox was incubated up to 12 days at 4° C., RT, or 37° C. Samples were filtered through ultrafiltration spin columns every other day, and retentate and filtrate absorbances measured at 480 nm to determine relative Dox retention or release from conjugates, respectively. As illustrated in FIG. 6 (B), to mimic extended exposure to cells in culture medium, HerDox immobilized on Ni-NTA beads were incubated with bovine serum in DMEM for the indicated times at 37° C. before each sample was pelleted. Absorbance of supernatants (Filtrates) and bead eluates (Retentates) were measured at 480 nm to detect Dox. Relative Dox release or retention in serum is expressed as normalized to control (corresponding sample lacking serum). N=3 per time point.
The inventors tested the stability of HerDox over 12 days under different storage temperatures: 4° C., room temperature, or 37° C. On each day, a sample underwent ultrafiltration, then filtrates and retentates were measured to determine whether any Dox was released from the complex. […] The inventors also examined HerDox stability in serum-containing media at 37° C. […] Dox retention in the conjugate was also assessed by eluting the conjugate from the beads at each time point.

[2] = system: SKBR3, MDA-MB-435, MDA-MB-453, HeLa, MDA-MB-231; assay: Cytotoxicity dose curves on lines displaying differential HER2 (CD50); assay type: cell-based; details: range of HerDox doses
Description: FIGS. 17 (A)-(B) illustrates relative cell surface HER subunit levels and cytotoxicity on cell types. FIG. 17 (A) depicts a graph of relative cell surface HER subunit levels as measured by ELISA. Cells were incubated with anti-HER subunit antibodies followed by HRP-conjugated secondary antibodies using standard procedures. Relative cell numbers were measured by crystal violet staining and quantified by measuring crystal violet absorbance at 590 nm. Relative subunit levels are reported as the ELISA signal of each cell population normalized by the relative cell number, or Abs 450 run/590 nm. FIG. 17 (B) depicts toxicity to cells displaying differential HER2. Cytotoxicities from a range of HerDox doses were assessed on each cell line by metabolic assay and confirmed by crystal violet stain. CD50 values shown in log scale were determined by non-linear regression analyses of HerDox dose curves using a scientific graphing program and confirmed using a calculator. The relative HER2 level of each cell line is shown next to each CD50 value.
The inventors measured cell surface levels of HER subunits on various cell lines and types described herein, as previously described levels may not reflect the actual levels in the available cells used. The inventors acquired the indicated cell lines from ATCC and the NIH/NCI and profiled these with respect to HER subunit levels (FIG. 17 (A)). […]

MDA-MB-435 (HER2+) cells = assay: Targeted toxicity, MTT assay, separate dishes; assay type: cell-based; details: 0.5 uM Dox conc, 4 h exposure, by three days
Description: (§1) FIG. 7 illustrates targeted toxicity. Each cell line was exposed to HerDox (0.5 uM Dox cone), Dox alone (0.5 uM), or HerPBK10 alone for 4 h at 37° C. in complete (i.e. serum-containing) media, followed by aspiration to remove free conjugate, and addition of fresh medium while cells are grown continuously. Cell titer was determined by metabolic (i.e. MTT) assay. FIG. 7 upper panel illustrates the effect of HerDox on MDA-MB-231 (HER2−) and MDA-MB-435 (HER2+) cell survival. Relative surviving cell numbers are represented as a % of corresponding untreated cells. FIG. 7 lower panel illustrates comparison of HerDox, Dox alone, or HerPBK10 alone on HER2− and HER2+ cell survival. Relative survival (as % of untreated cells) is shown for Day 3 of treatment.
(§2) The inventors compared the effect of HerDox or Dox alone at equivalent dosages (0.5 uM with respect to Dox concentration) on HER2+ and HER2− breast cancer cells in separate dishes. By three days, HerDox reduced HER2+ cell numbers by over 75% whereas HER2− cell survival was unaffected (FIG. 7). […] These findings emphasize the importance of targeting by showing that the untargeted drug affects nontarget (i.e. HER2−) cells. Importantly, the protein carrier, HerPBK10, alone at the equivalent concentration of protein in HerDox (0.1 uM) had no effect on either cell line (FIG. 7), including a lack of proliferation induction. To test receptor targeting, the inventors used free heregulin ligand (Her or eHRG) as a competitive inhibitor. […] As a final in vitro challenge, the inventors tested whether HerDox induces toxicity specifically to HER2+ cells in a mixed culture of HER2+ and HER2− breast cancer cells. To do this, the inventors produced a HER2− cell line tagged with green fluorescent protein (GFP) for cell identification in the mixed culture (FIG. 9 (A)). […] Altogether, these findings indicate that HerDox has the capacity to preferentially target toxicity to HER2+ cells. […] Moreover, the preferential cell killing of HER2+ cells in a mixed culture of HER2+ and HER2− cells implies that after death and lysis of the target cells, the Dox released into those cells is incapable of continuing to induce toxicity to HER2− cells. To further confirm the stability of HerDox in cell culture, HerDox was recovered from culture media in separate experiments at indicated time points and electrophoresed on an agarose gel, which was then illuminated by UV to detect Dox and stained with Coomassie blue to detect HerPBK10 protein (FIG. 9 (C)). […] Co-migration of HerPBK10 bands further verified that the conjugates remained intact in the cell media.

MDA-MB-231 (HER2−) cells = assay: Targeted toxicity, MTT assay, separate dishes; assay type: cell-based; details: HerDox/Dox 0.5 uM Dox; HerPBK10 0.1 uM; day 3
Description: as §1, §2

[3] = system: heregulin receptors on MDA-MB-435 (HER2+) cells; assay: Receptor specificity, competition with free heregulin ligand (eHRG); assay type: cell-based; details: eHRG 10× molar excess, HerDox 0.5 uM
Description: FIG. 8 illustrates receptor specificity. MDA-MB-435 (HER2+) cells were incubated with free ligand (eHRG) at 10× molar excess of HerDox for 1 h at 4° C. Media was aspirated to remove free eHRG and fresh media containing HerDox (0.5 uM) was added to cells. Cell survival was measured by MTT assay and represented as a % of relative untreated cell numbers.
The inventors compared the effect of HerDox or Dox alone at equivalent dosages (0.5 uM with respect to Dox concentration) on HER2+ and HER2− breast cancer cells in separate dishes. By three days, HerDox reduced HER2+ cell numbers by over 75% whereas HER2− cell survival was unaffected (FIG. 7). […] These findings emphasize the importance of targeting by showing that the untargeted drug affects nontarget (i.e. HER2−) cells. Importantly, the protein carrier, HerPBK10, alone at the equivalent concentration of protein in HerDox (0.1 uM) had no effect on either cell line (FIG. 7), including a lack of proliferation induction. To test receptor targeting, the inventors used free heregulin ligand (Her or eHRG) as a competitive inhibitor. […] As a final in vitro challenge, the inventors tested whether HerDox induces toxicity specifically to HER2+ cells in a mixed culture of HER2+ and HER2− breast cancer cells. […]

B1: HerDox: non-covalent complex of HerPBK10, a small double-stranded nucleic acid and intercalated Dox (conjugate)
chain: LPPRLKEMKSQESAAGSKLVLRCETSSEYSSLRFKWFKNGNELNRKNKPQNIKIQKKPGKSELRINKASLADSGEYMCKVISKLGNDSASANITIVESNEIITGMPASTEGAYVSSESPIRISVSTEGANTSSSTSTSTTGTSHLVKCAEKEKTFCVNGGECFMVKDLSNPSRYLCKCQPGFTGARCTENVPMKVQNQEKAEELYMRRAAMYEEGPPPSYESVVSAAPVAAALGSPFDAPLDPPFVPPRYLRPTGGRNSIRYSELAPLFDTTRVYLVDNKSTDVASLNYQNDHSNFLTTVIQNNDYSPGEASTQTINLDDRSHWGGDLKTILHTNMPNVNEFMFTNKFKARVMVSRLPTKDNQVELKYEWVEFTLPEGNYSETMTIDLMNNAIVEHYLKVGRQNGVLESDIGVKFDTRNFRLGFDPVTGLVMPGVYTNEAFHPDIILLPGCGVDFTHSRLSNLLGIRKRQPFQEGFRITYDDLEGGNIPALLDVDAYQASLKDDTEQGGGGAGGSNSSGSGAEENSNAAAAAMQPVEDMNDHAIRGDTFATRAEEKRAEAEAAAEAAAPAAQPEVEKPQKKPVIKPLTEDSKKRSYNLISNDSTFTQYRSWYLAYNYGDPQTGIRSWTLLCTPDVTCGSEQVYWSLPDMMQDPVTFRSTRQISNFPVVGAELLPVHSKSFYNDQAVYSQLIRQFTSLTHVFNRFPENQILARPPAPTITTVSENVPALTDHGTLPLRNSIGGVQRVTITDARRRTCPYVYKALGIVSPRVLSSRTFKKKKKKKKKK
modifications: left off: small tags and cut ends
notes: non-covalent complex of HerPBK10, a small double-stranded nucleic acid and intercalated Dox
release of Dox from the conjugate in serum [1]: no significant release of Dox | Dox retention by the conjugate in serum ([1]; each time point): completely retained | relation of CD50 to cell surface HER2 level [2]: inversely correlates with cell surface HER2 level | reduction of HER2+ cell numbers (MDA-MB-435 (HER2+) cells): over 75% | effect on HER2− cell survival (MDA-MB-231 (HER2−) cells): unaffected | cell killing by HerDox in presence of free heregulin ligand [3]: completely inhibited
